# From US20090191195A1 (MacroGenics, published 2009)
# T1: human FcγRIIB (human, UniProt P31994 43-310)
# T1 construct: whole, on cells; Native receptor on human cells or in frozen tissue sections; also called CD32B
# T1 sequence (looked up): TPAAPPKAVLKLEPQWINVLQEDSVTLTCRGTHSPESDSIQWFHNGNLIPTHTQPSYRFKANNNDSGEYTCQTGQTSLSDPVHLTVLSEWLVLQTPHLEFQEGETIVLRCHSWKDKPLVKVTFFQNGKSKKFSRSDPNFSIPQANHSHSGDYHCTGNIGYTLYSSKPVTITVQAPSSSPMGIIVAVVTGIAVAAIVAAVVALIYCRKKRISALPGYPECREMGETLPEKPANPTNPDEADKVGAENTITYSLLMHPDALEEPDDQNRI
# B1: monoclonal antibody produced by clone 2B6 (ATCC accession number PTA-4591) (antibody, V domains shown)
# VH: QVQLQQPVTELVRPGASVMLSCKASDYPFTNYWIHWVKQRPGQGLEWIGVIDPSDTYPNYNKKFKGKATLTVVVSSSTAYMQLSSLTSDDSAVYYCARNGDSDYYSGMDYWGQGTSVTVSS
# VL: DILLTQSPAILSVSPGERVSFSCRTSQSIGTNIHWYQQRTNGFPRLLIKNVSESISGIPSRFSGSGSGTDFILSINSVESEDIADYYCQQSNTWPFTFGGGTKLEIK
# notes: Mouse hybridoma antibody; mouse IgG1 was used as its isotype control; also called murine monoclonal anti-CD32B antibody, 2B6; anti-CD32B
# Biological target: T1, human FcγRIIB
# Assay: immunohistochemistry, frozen lymph node, patient MG04-CHTN-19; grade = share of positive cells
# Experimental: The remaining portions of these samples were placed in cryomolds and embedded in OCT cryocompound (Tissue-Tek). Once the blocks were ready, each was sectioned under a Cryostat (Leica Microsystems) at 6 microns. The slides were placed in 4° C. acetone and fixed for 10 minutes. Hours after fixation the slides were air dried and washed with phosphate buffer saline (PBS). Then endogenous peroxide activity was blocked by a 30 minute incubation in a 0.3% hydrogen peroxide solution. The slides were washed in PBS and incubated for 30 minutes with 10% normal goat serum in 2% normal human serum. After this step, the slides were divided in two groups. Two monoclonal antibodies were utilize and incubated on the same tissue in parallel, an anti-CD20 (1F5—a hybridoma, ATCC No. HB-9645, purified at Macrogenics) and the murine monoclonal anti-CD32B antibody, 2B6. Each group was incubated with one monoclonal antibody and their respective Isotype control, IgG1 (BD Biosciences, San Jose, Calif.) for the 2B6/anti-CD32B group and IgG2a (BD Biosciences) for the 1F5/anti-CD20 group. Mouse IgG1 and murine IgG2a were used as Isotype controls for anti-CD32B and anti-CD20, respectively. After one hour of incubation at room temperature, the slides were washed in PBS and incubated with a secondary antibody Goat anti Mouse labeled peroxidase (Jackson ImmunoResearch Laboratories, West Grove, Pa.). […]
binder,measurement,value
B1,binding result,binds
